B1: Pistol ribozyme (parent)
chain: GGGUCGUUGUUCCAUAAUCGCGUGGAUAUGGCACGCAAGUUUCUACCGGGCACCGUAAAUGUCCGACUGGAGCCGUUCGGGCGGCUAUAAACAGACCUCAGGCCCGAAGCGUGGCGGCACCUGCCGCCGGUGGUAAAAAAGAUCGGAAGAGCACACGUCU

Variants of: B1
Experiment: aptazyme ON/OFF ratio, guanine; higher = stronger switching; co-transcriptional cleavage with and without guanine

Variant | aptazyme ON/OFF ratio
U7C U8C G9C U11A C12U | 1.14
U7C U8C G9C U10G U11C C12G C13A | 1.14
U7C U8C G9C U10G U11C C12G C13U | 1.11
U7C U8C G9C U10G U11C C12G C13G | 1.1
U7C U8C G9C U10A U11C C13A | 1.08
U7C U8C G9C U10A U11C C13U | 1.1
U7C U8C G9C U10A U11C C13G | 1.1
U7C U8C G9U U10A U11G C13G | 1.11
U7C U8C G9U U10A U11G C13U | 1.31
U7C U8C G9U U10A U11G C13A | 1.12
U7C U8C G9C U10A U11A C12U C13G | 1.2
U7C U8C G9C U10A U11A C12U C13U | 1.17
U7C U8C G9C U10A U11A C12U C13A | 1.03
U7C U8C G9C U10G U11G C12U C13U | 1.06
U7C U8C G9C U10G U11G C12U C13G | 1.09
U7C U8C G9C U10G U11G C12U C13A | 1.08
U7C U8C G9U U10A U11A C12A C13U | 1.1
U7C U8C G9U U10A U11A C12A C13G | 1.11
U7C U8C G9U U10A U11A C12A C13A | 1.12
U7C U8C G9U | 2.34
U7C U8C G9C U10A U11G C12G C13U | 1.1

Variant | aptazyme ON/OFF ratio
U7C U8C G9C U10A U11G C12G C13A | 1.15
U7C U8C G9C U10A U11G C12G C13G | 1.12
U7C U8C G9C U10C U11A C12A | 1.12
U7C U8C G9C U10C U11A C12G | 1.11
U7C U8C G9C U10C U11A C12U | 1.02
U7C U8C G9C U10G U11C C12A | 1.09
U7C U8C G9C U10G U11C C12U | 1.19
U7C U8C G9C U10G U11C C12G | 1.14
U7C U8C G9C U10G C12G C13A | 1.05
U7C U8C G9C U10G C12G C13G | 1.09
U7C U8C G9C U10G C12G C13U | 1.1
U7C U8C G9C U11G C12A C13U | 1.09
U7C U8C G9C U11G C12A C13A | 1.13
U7C U8C G9C U11G C12A C13G | 1.1
U7C U8C G9C U11A C13A | 1.13
U7C U8C G9C U11A C13U | 1.08
U7C U8C G9C U11A C13G | 1.09
U7C U8C G9C U10G U11C C12A C13A | 1.13
U7C U8C G9C U10G U11C C12A C13G | 1.17
U7C U8C G9C U10G U11C C12A C13U | 1.09
U7C U8C G9U U10C C13U | 3.5

Variant | aptazyme ON/OFF ratio
U7C U8C G9U U10C C13A | 1.2
U7C U8C G9U U10C C13G | 1.08
U7C U8C G9C U11G C12U C13A | 1.06
U7C U8C G9C U11G C12U C13U | 1.1
U7C U8C G9C U11G C12U C13G | 1.07
U7C U8C G9C U10A U11A C13G | 1.14
U7C U8C G9C U10A U11A C13U | 1.15
U7C U8C G9C U10A U11A C13A | 1.13
U7C U8C G9U U10C C12U C13A | 1.12
U7C U8C G9U U10C C12U C13U | 1.28
U7C U8C G9U U10C C12U C13G | 1.1
U7C U8C G9C U11G C13A | 1.12
U7C U8C G9C U11G C13U | 1.1
U7C U8C G9C U11G C13G | 1.12
U7C U8C G9U U10A U11A C12G C13G | 1.19
U7C U8C G9U U10A U11A C12G C13A | 1.03
U7C U8C G9U U10A U11A C12G C13U | 1.11
U7C U8C G9U U10A U11G C12A | 1.2
U7C U8C G9U U10A U11G C12G | 1.15
U7C U8C G9U U10A U11G C12U | 1.11
U7C U8C G9C U10G U11G C12U | 1.11

Variant | aptazyme ON/OFF ratio
U7C U8C G9C U10G U11G C12A | 1.11
U7C U8C G9C U10G U11G C12G | 1.14
U7C U8C G9C U10G U11C C12U C13A | 1.07
U7C U8C G9C U10G U11C C12U C13U | 1.17
U7C U8C G9C U10G U11C C12U C13G | 1.14
U7C U8C G9C U11A C12U C13A | 1.06
U7C U8C G9C U11A C12U C13G | 1.16
U7C U8C G9C U11A C12U C13U | 1.11
U7C U8C G9C U10C U11G C12G C13A | 1.08
U7C U8C G9C U10C U11G C12G C13G | 1.12
U7C U8C G9C U10C U11G C12G C13U | 1.11
U7C U8C G9C U10A C13U | 1.35
U7C U8C G9C U10A C13A | 1.16
U7C U8C G9C U10A C13G | 1.15
U7C U8C G9C U10G U11A C12A | 1.16
U7C U8C G9C U10G U11A C12U | 1.15
U7C U8C G9C U10G U11A C12G | 1.11
U7C U8C G9C U10A U11G C12U C13A | 1.15
U7C U8C G9C U10A U11G C12U C13G | 1.08
U7C U8C G9C U10A U11G C12U C13U | 1.1
U7C U8C G9U C13G | 1.03

From the RNAGym collection of RNA variant scans (doi:10.1021/acssynbio.7b00057)
